Experimental data taken from patent US20230331852A1 (OSE IMMUNOTHERAPEUTICS, published 2023).

Experiments:
[1] = target: T1, recombinant human CLEC-1 protein with His Tag (#1704-CL R&D Systems) (human, UniProt Q8NC01 74-280); experiment: ELISA on immobilised His-CLEC1 (from FIGURE 12)
T1 construct: Bought protein; also called His-CLEC1; His Clec-1; not shown: His tag
T1 sequence: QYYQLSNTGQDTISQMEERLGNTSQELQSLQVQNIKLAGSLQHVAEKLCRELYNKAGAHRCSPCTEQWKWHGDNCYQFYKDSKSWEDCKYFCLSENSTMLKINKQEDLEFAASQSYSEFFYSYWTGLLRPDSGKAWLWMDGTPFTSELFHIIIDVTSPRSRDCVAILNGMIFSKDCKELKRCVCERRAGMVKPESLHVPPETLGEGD
Protocol: Method: The binding activity of the anti-hCLEC1 antibodies was assessed by ELISA (Enzyme-linked immunosorbent assay). […] A second ELISA assays was performed, like above, with immobilization of CLEC1-Fc (OSE Immunotherapeutics) at 2 μg/ml. A third ELISA assays was performed to see the cross-reactivity with mouse CLEC1. Like above, ELISA was made with immobilization of mouse Fc-CLEC1 (OSE Immunotherapeutics) at 2 μg/ml in carbonate buffer instead of His-Clec. Purified antibodies were added at different concentrations to measure binding. […] Control antibody is a commercial anti-CLEC-1A antibody.

[2] = target: T2, human CLEC-1A expressed on the cell membrane (human, UniProt Q8NC01 1-280); experiment: flow cytometry on CHO-Clec-1 cells (from FIGURE 21)
T2 construct: Endogenous on human U266 myeloma cells, on monocyte-derived TGFb-DC and macrophages; on CHO cells after transduction with a Clec-1 expressing lentivirus; also called U266 CLEC1; CLEC-1A on U266 cells
T2 sequence: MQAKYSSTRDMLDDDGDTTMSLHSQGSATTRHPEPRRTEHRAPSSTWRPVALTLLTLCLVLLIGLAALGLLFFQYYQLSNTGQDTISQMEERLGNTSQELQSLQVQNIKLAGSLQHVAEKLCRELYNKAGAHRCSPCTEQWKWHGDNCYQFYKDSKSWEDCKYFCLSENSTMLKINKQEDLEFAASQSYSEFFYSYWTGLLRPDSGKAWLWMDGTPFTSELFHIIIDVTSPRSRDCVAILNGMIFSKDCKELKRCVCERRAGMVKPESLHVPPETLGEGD
Protocol: To measure binding of anti-clec on CHO-Clec-1 cells, human Fc Receptor Binding Inhibitor diluted at 1/200 (BD pharmingen; USA; reference 564220) was first added for 30 min at room-temperature to block human Fc receptors on CHO-Clec-1 cells to reduce background. Then, antibodies were incubated for 30 min at 4° C., and washed before stained 15 min at 4° C. with PE-labelled anti-human IgG Fc (Biolegend; USA; reference 409303). Samples were analyzed on citoflex (Beckman coulter)

[3] = target: T1, recombinant human CLEC-1 protein with …; experiment: Blitz biolayer interferometry, His-CLEC1 on Ni-NTA biosensor, antibody at 20 ug/mL
[4] = target: T3, Fc-CLEC1 labelled with Alexa Fluor 488 (human, Alexa Fluor 488 label (sites not given)); experiment: FACS competition: blocks Fc-CLEC1-A488 (10 nM) binding to CLEC-1 ligand on UV-treated PBMC
T3 construct: also called Fc-CLEC1-A488; Alexa488-Fc-Clec-1
T3 chain: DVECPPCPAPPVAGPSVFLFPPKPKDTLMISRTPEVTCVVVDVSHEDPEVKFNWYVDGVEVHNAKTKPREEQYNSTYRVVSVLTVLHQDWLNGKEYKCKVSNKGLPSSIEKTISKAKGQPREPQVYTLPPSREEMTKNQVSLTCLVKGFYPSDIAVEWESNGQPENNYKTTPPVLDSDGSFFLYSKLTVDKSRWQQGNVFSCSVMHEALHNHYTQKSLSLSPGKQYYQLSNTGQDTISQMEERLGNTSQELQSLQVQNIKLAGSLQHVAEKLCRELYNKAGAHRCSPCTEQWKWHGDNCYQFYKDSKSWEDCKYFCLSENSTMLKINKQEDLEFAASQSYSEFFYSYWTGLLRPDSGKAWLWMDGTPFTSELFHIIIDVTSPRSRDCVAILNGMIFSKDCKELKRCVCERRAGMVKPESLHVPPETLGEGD
Protocol: Competition were also measured on UV pre-treated pro-apoptotic human PBMCs, which can also express the ligand after a treatment under UV radiation for 18 hours. After UV treatment, cells were first washed in cold-PSE and then blocked during 30 min at room temperature with human Fc-block 50-fold diluted in PSE, and then replaced on ice. Purified anti-Clec antibodies at different concentrations were pre-incubated with Alexa488-Fc-Clec-1 in PSE at different concentrations for 15 min at room temperature. Pre-incubated mixes were then incubated on Fc-blocked/SAB (#34005-100, Invitrogen, Illkirch, France) pro-apoptotic PBMCs for 30 min on ice. Binding on cells were then fixed by PFA 2% in cold PBS for 10 min on ice and analyzed on CytoFlex cytofluorometer (Beckman Coulter France, Villepinte).
Methods. To measure competition on permeabilised Raji (CytoFix/cytoperm kit, BD Biosciences) which expressed CLEC1 ligand, Fc-CLEC1-labelled A488 which bound specifically to permeabilised Raji was used. To measure competition, Fc-CLEC1 labelled A488 at 10 nM or 20 nM was mixed with mouse anti-hCLEC1 at different concentrations for 15 min at RT then added on these cells for 30 min at 4° C. […] To measure competition on PMBC, we used human PBMC pre-treated by UV for 18 h to obtain apoptotic PBMC, which expressed CLEC1 ligand. Fc-CLEC1-labelled A488 bound specifically apoptotic UV-treated PBMC. To measure competition, Fc-CLEC1 labelled A488 at 10 nM was mixed with mouse anti-hCLEC1 at different concentrations for 15 min at RT then added on these cells for 30 min at 4° C.

B1: chimeric anti-CLEC-1A antibody 14H9 (antibody, human IgG4 S228P, kappa, V domains shown)
VH: QVQLKESGPGLVAPSQSLSITCTISGFSLTTYGIHWVRQPPGKGLEWLVVIWSDGSTIYNSALKSRLSISKDNSKSQVFLKMNSLQTDDTAIYYCARHGGYYNYFDYWGQGTTLTVSS
VL: DIQMNQSPSSLSASLGDTITITCHASQNINVWLSWYQQKPGNIPKLLIYKASNLHTGVPSRFSGSGSGTTFTLTIDSLQPEDIATYYCQQGQSYWTFGGGTKLEIKR
notes: also called 14H9chim; 14H9-VHwt-FcG4m / 14H9-VLwt-CLhk
- EC50 [1]: 0.148 µg/mL
- EC50 [2]: 0.895 µg/mL
- Kd [3]: 15.9 nM
- koff [3]: 0.00124 s⁻¹
- kon [3]: 78000 M⁻¹ s⁻¹
- IC50 [4]: 0.873 µg/mL
